Test: yeast display, Sf9 membrane polyspecificity reagent, FACS + sequencing; frameworks hold sequencing errors
Summary of the method: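 Using colony PCR, genes from sorted yeast display clones were amplified, then sequenced on MiSeq at 2 × 250 and filtered by CDR length. The clones had been stained with 10% biotinylated, detergent-solubilized Sf9 membrane reagent for 1 hour at 4 °C and sorted by FACS into low and high (top ~1%) gates on anti-HA and streptavidin fluorescence. Polyreactivity labels come from the gate of origin.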

Sequence	polyreactivity (PSR sort gate)
QVQLVESGGGLVLAGGSLRLSCAASGRTFKKYAMGWYRQAPGKVRELVAAITSGGSTYYADSVKGRFTISRDNAKNTVYLQMNSLKPEDTAVYYCAAASSQHGNTYYYWGQATQVTVSS	high polyreactivity
QVQLVESGGGLVQAGGSLRLSCAASGRTFRRNAMGWYRQAPGKERELVAAIRWSSGSTYYADSVKRRFTISRDNAKNTVYLQMNSLKPEDTAVYYCAKRQWGGRESFDYWAQGTQVTVSS	low polyreactivity
QVQLVESGGGLVQAGGSLRLSCDASGNTFLYNTMGWYRQAPGKEREFVAAISGSGGSTYYADSVKGRFTISRDNAKYTVYLQMNSLKPEDTAVYYCNALWRRRKYDYWGEGTQVTVSS	high polyreactivity
LVQLVESGGGLVQAGGSLRLSCAASGSIFRYYVMGWYRQAPGKDRELVAAISTGDRTNYADSVKGRFTISRDNPKKTVYLQMNSQKPEDTAVYYCNADYVVGWARLEFNYWGQGTQVTVSS	low polyreactivity
QVQLVESGGGLLQAGGSLRLSSAASGRIFYGNTMGWYRQAPGKERELVAAITWRGGSTYYADSVKGRFTISRDNAKNTVYLQMNSLKPEDTAVYYCAAVSYRGRGYWGQGTQVTVSS	high polyreactivity
QVQLVESGGGLVQAGGSLSLSCAASGATFVRNAMGWYRQAPGKERELVAVISFRGGRTYYADSVKGRFTISRDNAKNTVYLQMNSLNPEDTAVYYCAKDRVASGVISSVDSWGQGTLVTVSS	low polyreactivity
QVQLVDSGGGLVQAGGSLRLSCAASGLTFYHYTMGWYRQAPGKERELVPAITKNGGSTYYADSVKGRFTISRDNAKNTVYLQMNSLKPEDSAVYYCAAYEFGLLRYYSGRSYYYWGQGTQVTVSS	high polyreactivity
QVQLVESGGGLVQAGGSLRLSCAASGRTFSGYAMGWYRQAPGKERELVAAISNSGGNTYYADSVKGRFTISRDNAKNTVYLQMNSLKAEDTAVYYSAVDSSSPYDYWGQGTQVTVSS	high polyreactivity
QVQLVESGGGLVQAGGSLRLSCAASGIIFYGYAMGWYRQAPGKERELVAAISRSGGSTYYADSVKGRFTISRDNAKNTVYLQMNSLKPEDTAVYYCAAVAYPGKGNRGNYDYWGQGTQVTVSS	high polyreactivity
QVQLVESGGGLVQAGGSLRLSCAASGIILDTYDMGWYRQAPGKERELVAVISWRGRTYYADSVKGRFTISRDNAKNTVYLQMNSLKPEDTAVYYCAAYSYRSVRWGWTSYDYWGQGTQVTVSS	high polyreactivity
QVQHVESGGGIVQAGGSLRLSCAASGITFSRKAMGRYRQATGKERELVATITSGGSTNYADSVKGRFTISRDNAKNTVYLQMNRLKPEDTAVYYCNAVWNTFISGRSYDYWGQGTQVTVSS	low polyreactivity
QVQHVESGGGILQAGRSLRLICAASGRLYLSNVMAWNRQAPGTERQLVAAITGRGSSTYYADSVKGRFTISRDNAKNTVYLLINSLKPEDSAVYSCAKRLPYSSGYEYWGQGTQVTVSS	high polyreactivity
QVQLVESGGGFVQAGGSLRLSCAASGRTYTLNAMRWYRQAPGKERELVAAITWGAGSTYYADSVKGRFTISRDNAKNTVYLQMNSLKPEDTAVYYCAARFHGAYYRYRSPSMYYWGQGTQVTVSS	high polyreactivity
QVQLVESGGGLVQAGGSLRLSCAASGFIFYRNTMGWYRQAPGKERELVAAISVSGGSTNYADSVKGRFTISRDNAKNTVYLQMNSLKPEDTAVYYCAARVRDSLVYGGWDDYWGQGTQVTVSS	high polyreactivity
QVQLVESGGGLVQAGGSLRLSCAASGFIFDYNAMGWYRQAPGKERELVDAISGGGGSTYYADSVKGRFTISRDNAKNTVFLLMNSLKPEDTSVYDCAKRYRGGYWGQGSQVTVSS	high polyreactivity
QVQLVESGGGLVQAGGSLRLSCAASGSTFLFNVMGWYRQAPGKERELVAAITSGASTYYADSVKGRFTISRDNAKNTVYLQMNSLEPEDTAVYYCAVDYSFRYDYVQRYYYWGQGTQVTVSS	high polyreactivity
QVQLVESGGGLVQAGGSLRLSCAASGRIFVANAMGWYRQAPGKERELVAAISGRGSRTYYADSVKGRFTISRDNAKNTVYLQMNSLKPEDTAVYYCAARYRYDGRYDYWGQGTQVTVSS	high polyreactivity
QVQLVESGGGLVQAGGSLRISCAASGIIFRYYAMGWYRQAPGKERELVARISSGGSTKYADSVKGRYTISRDNAKNTVYLQMNSLKPEDTAVYYCAAEYYSLRYAIFYYWGQGTQVTVSS	high polyreactivity
QVQLVESGGGLVQAGGSLRLSCAASGGTFQAYAMGWYSQAPGKDREFDAAITAGGGSTSYADSVKGRFTISRDNAKNTVDLQLNRLKPEDSAAYYCAVDGGFPVTDYDYWGQGTQVTVST	low polyreactivity
QVQLVESGGGLVQAGGSLRLSCAASGRIFRYYAMGWYRQAPGKERELVAAISYSTGGTYYADSVKGRFTISRDNAKNTVYLQMNSLIPEDTAVYYCAARGPLDRYGYWGQGTQVTVSS	high polyreactivity
QVQLVESGGGLVQAGGSLRISCAASGSIFLYYAMGWYRQPPGKEREFVAAISYSGGRTYYADSVKGRFTISRDNAKNTVYLQMNSLKPEDTAVYYCNALYRLGVSGLTQSRYGYWGQGTQVTVSS	high polyreactivity
QVQLVESGGCLVQAGGSLRLSCAASGRIFTYYGMGWYRQAPGKERELVAAITRSGGSTRYADSVKGRFTISRDNSKNTVYLQMNSLKPEDTAVYYCNAGGYWRYDYWGQGTQVTVSS	low polyreactivity

Sequence	polyreactivity (PSR sort gate)
QVQLVESGGGLVQAGGSLRLSCAASGRIFRGNVMGWYRQAPGKERELVAAINSGASSNYADSVKGRFTISRDNAKNTVYLQMNSLKPEDTAVYYCAKRGPRSYFQPCYDYWGQGTQVTVSS	high polyreactivity
QEQLVESGGGLVQAGGSLRLSCAASGFIFAPYAMGWYSQAPGKDRDLVAAISSSGGSTYYADSVKGRFTISRDNAKNTVYLQMNSLKPEDTAVFYCAARGNFGANPGRKHGFDYWGQGTQVTVSS	low polyreactivity
QVQLVESGGGLVQAGGSLRLSCAASGSIFGPNAMGWYRQSPGKERELVAAISWGGGSTYYADSVKARITISRDNAINTVYLQMNILKPEDTGVYYCNASGYHDTAVRYDYWGQGTQVTVSS	low polyreactivity
QVQLVESGGGLVQAGGSLRLSCAAYGRTFFWNAMGLYRKAPGTETELVAAITWSGGSTYYADSVKGRFTISRDNAKITVYLQMNSLKPEDTAVYYCASVVSDYVWRYEYWGQGTQVTVSS	low polyreactivity
QVQHVESGGGLVQAGGSLRLSCAASGSTYGYYAMGWYRQAPGKERELVAAITSGGTTNYADSVKGRFTISRDNAKNTVYLQMNSLKPEDTAVYYCNAVGTFVRFWTDGRDGVTYDYWGQGTKVTVSS	low polyreactivity
QVQHVESGGGLVQAGGSLRLSCAASGRTFIINTMGWYRQAPGKERELVAAISKFGATTNYADSVKGRFTISRDNAKNTVYLQMNSLKPEDTAVYYCNARYSGYLRLDYWGQGTQVTVSS	low polyreactivity
QVQLVESGGGLVQAGGSLRLSCAASGFIFPGYAMGWYRQAPGKERELVAAITRSGGSTYYADSVKGRFTISRDNAKNTVYLQMNSLKPEDTAVYYCAAYVSGYRWGYDYWGQGTQVTVSS	high polyreactivity
QVQLVESGGGLVQAGGRLRLSCAASGSIFPYYAMGWDRQAPGKERELVASINQSDGTRYYADSVKGRFTISRDNAKNTVYLQMNSLKPEDTAVYYCAADTTLQAFIRYRPMGSYDSWGQGTQVTVSS	low polyreactivity
QVQLVESGGGLVLPGGSLRLSCAASGSTLYPYAMGWYRQAPGKERELVAAITYGGTSTYYADSVKGRFTISRDNAKNTVYLQMNSQKPEDTALYYCAARGGTTIRYDYWGQGTQVTVSS	high polyreactivity
QVQLEESGGGLVQAGGSLRLSCAASGINFQGNARGWYRQAPGKERELVASITAGGDTTYYADSVKGRFTISRDNAKNTFYLQLNSVKPEDSEVYDCAVYSWLDADDSYPDSILVDYWGQGTQVTVSS	low polyreactivity
QVQLVESWGGLVQAGGSLRLSCAASGIFYPMGWYTQAPGKERELVAAISSVGSTKYADSVKGRFTISRDNAKNTVYFQINSLKPEDTAVYYSNADVTRASSRYNSWGQGTQVTVSS	low polyreactivity
QVQLVESGGGLVQAGGSLRLSCAASGFIYDYAMGWYRQAPGKEREFVARINWSGGSTYYADSVKGRFTISRDNAKNTVYLQMNSLKPEDTAVFYCATSGWAWRTSNPYEYWGQGTQVTVSS	low polyreactivity
QVQLVESGGGLVQAGGSLRLSCAASGSIYINARGWYRQAPGKERELVAAISSGGSTNYADSVKGRFTISRDNAKNTVYLQMNSLKPEDTAVFYCATRRYRGPWYRNAYDYWGQGTQVTVSS	low polyreactivity
QVQLVESGGGLVQAGGSVRISCAASGRTFWYYAMGVYIQAPRKERELLAAITGRGGSTHYADSVKGRLTISRDNAKNTVYLPMISLKPEDTAVYYCAKDHYYRFPWGTGGYRGQGTQVTVSS	low polyreactivity
QVQLVESGGGLVQAGGSLRLSCAASGRTIPFYAMGWYRQAPGKERELVAAISSSAGRTYYADSVKGRFSISRDNAKNTVYLQLNSLKPEDTAVYYCAARLYCRYRYDYWGQGTQVTVSS	low polyreactivity
QVQLVESGGGLVQAGGSLRLSCAASGRTFKTYTMGWYRQEPGKERELVAVISSGGGSTNYADSVKGRFTISRDNAKNTVYLQMNSLKPEDTAVYYCAARKTGRPKYRYDYWGQGTQVTVSS	low polyreactivity
QVQIVESGGGLVQAGGSLRLTCAASGSTLTIYARGWYRQAPGKERDLVAAISRSGGRTYYADSVKGRFTISRDYAKNTVYLQMNSLKPEDTAVYYCAARGWSYRSVGYMDYWGQGTQVTVSS	high polyreactivity
QVQLVESGGGLVQAGGSLRLSCAASGSIFSPYAMGWYRQAPGKERELVAAITDSGGSTYYADSVKGRFTISRDNAKYTVYLQMNSLKPEDTAVYYCAADLRYWSWAFDYWGQGTQVTVSS	low polyreactivity
QVQLVESGGGLVQAGGSLLLSCAASGRTFYYNAMGWYRQAPGKERELVAAISRGGNTNYADSVKGRFTISRDNAKNTVYLQMNSLKPEDTAVYYCSTYHRYKFYYWGQGTQVTVSS	high polyreactivity
QVQLVESGGGLVQAGGSLRLSCDASGGTFVHNAMGWYRQAPGKERELVAAISWSGGSTYYADSVKGRFTISRDNATNTVYLQMNSLKPEDTAVNYCAADLPDYKDIFDSWGQGTQVTLSS	low polyreactivity
QVQLEESGGCLVQAGGSLRLSCAASGFTFRGYAMGWYSQAPGKERELVAAISKRGGSTYYADSVKGRFTISRDNAKNTVYLLMNSLKPADTAVYYCNADYYIVGPPYSPTREDYWGQGTQVTVSS	high polyreactivity

— the nanobody polyreactivity screen of Harvey et al. (2022)
